{"source": "paper PMC9742198", "about": "(Immunity, 2022)", "target": "SARS-CoV-2 receptor-binding domain (ancestral RBD) (SARS-CoV-2 (ancestral), UniProt P0DTC2)", "test": "ELISA", "data": [{"binder": "CAB-I12 (antibody, V domains shown) VH: QVQLVQSGAEVKKPGSSVKVSCKASGDTFSRYSISWVRQAPGQGLEWMGRIIPMFATANYAQKFQGRVTITADKTTSIAYMELSSLRSEDTAVYYCARANYYYESGGYHFDNWGQGTLVTVSS VL: EIVLTQSPGTLSLSPGERATLSCRASQSVGSSYLAWYQQKPGQAPRLLIYGASTRATGIPHRFSGSGSGTDFTLTISRLEPEDFAVYYCQQYHNSPRTFGQGTKV", "values": [{"measurement": "binding result", "value": "binds"}]}]}
